One protein from PMC5484391 (Cell, 2017) can be followed below.

This data set deals with the molecule itself. In words: cryo-EM structure.

B1: hERGTs (human hERG, truncated construct lacking residues 141–380 and 871–1005) (natural protein, UniProt Q12809 1-1159, looked up)
chain: MPVRRGHVAPQNTFLDTIIRKFEGQSRKFIIANARVENCAVIYCNDGFCELCGYSRAEVMQRPCTCDFLHGPRTQRRAAAQIAQALLGAEERKVEIAFYRKDGSCFLCLVDVVPVKNEDGAVIMFILNFEVVMEKDMVGSGADVLPEYKLQAPRIHRWTILHYSPFKAVWDWLILLLVIYTAVFTPYSAAFLLKETEEGPPATECGYACQPLAVVDLIVDIMFIVDILINFRTTYVNANEEVVSHPGRIAVHYFKGWFLIDMVAAIPFDLLIFGSGSEELIGLLKTARLLRLVRVARKLDRYSEYGAAVLFLLMCTFALIAHWLACIWYAIGNMEQPHMDSRIGWLHNLGDQIGKPYNSSGLGGPSIKDKYVTALYFTFSSLTSVGFGNVSPNTNSEKIFSICVMLIGSLMYASIFGNVSAIIQRLYSGTARYHTQMLRVREFIRFHQIPNPLRQRLEEYFQHAWSYTNGIDMNAVLKGFPECLQADICLHLNRSLLQHCKPFRGATKGCLRALAMKFKTTHAPPGDTLVHAGDLLTALYFISRGSIEILRGDVVVAILGKNDIFGEPLNLYARPGKSNGDVRALTYCDLHKIHRDDLLEVLDMYPEFSDHFWSSLEITFNLRDTNMIPGGRQYQELPRCPAPTPSLLNIPLSSPGRRPRGDVESRLDALQRQLNRLETRLSADMATVLQLLQRQMTLVPPAYSAVTTPGPGPTSTSPLLPVSPLPTLTLDSLSQVSQFMACEELPPGAPELPQEGPTRRLSLPGQLGALTSQPLHRHGSDPGS
Regarding B1, the binding result is reported as “binds”.
